Experiment: soluble on expression in E. coli; label from the status in PepcDB or PDB records

| Sequence | soluble on expression in E. coli |
| --- | --- |
| MGSDKIHHHHHHMAKVEELTPQQLSETDLKPRGRVYPSPISWRDQFLYQLVLDRFSDDNENQRELFDHTNLAKFQVKDKAGWMAAGTKFVGGTLRGIKSKLDYLQRLGVTTLWINPPWQQRSELEAYHSDRIQEFLDIDPHFGTRQDLRDLIDAAHDRRMYVILDVIYNQNADNWFHRNDVIAALARVYQYWIALSDCDGLRIDSLKHVSPEDSRKFCTAIREYAESIDKDNFLLTGEITSGSMAGAYIDIIARNFSAVLDIAQTPNELAAFAKGLVHPKQFFDLYSENNLAGEYRQIGTYHVSILDDYEMSFRTNKQRFAAYSNVPHLYEQVAHAVGVQLTMPGIPAIYYGTEQAFDGNEGYHDYSIEGRKFAEDRYIKEAMFGGAFGAFQTADCHFFDIDHPTYLRIAAIARIRNSHDKIGKALRRGHHYLRETSFFNSPFSIPGQGELVAWSQTLFDTEVLMVLNTNGLENRGAEVTVDTYMHPQDSTMTFLYKSDWSDSYLRHPPRDQTVAVQHHNDRRATVRIDLPPSGMAILA | not soluble |
| EAQIYGYVEKATLIDQNLTLSAKLDTGAKSASLHAVNITEIEKKGIPYLRFTVPTKTGDYSFEGEYVGKVKIKVRSSETNPGLLRTTPIKRPVVLLNIKLGDKVRTIKVNLTNRKRFLYPLLLGRDAIIDFNGAVDPALTFTTKSK | not soluble |
| MAQSKILLYYKFTPIADPKAMMLWQRDMCELLGLKGRILISEHGINGTVGGDMDACKRYVRKMREYPGFRGTEFKWSDGGAEDFPKLSVKVRDEIVAFGAPGELKVDEKGVIGGGVHLKPEEVNKLVEERGDDVVFFDGRNAMEAQIGKFKNAVVPDVRTTHDFIRELESGKYDWMKDKPVVSYCTGGIRCEILSSLMKNRGFKEIYQIDGGIVRYGEKYGNDGLWEGSLYVFDRRMHMEFGNGVQDPGFIQLGHCVQCGAPTNKFEHCINEDECRELVLMCPDCYENPATRNCGREHCKEVAAEAAAAAAV | not soluble |
| EDRSVHFDSMSNGQGAASALPIFAEFLKRVYADPKLGYTTEEKFEFPQDFQPCMMDQNVEYFDAGGGEVVEPLPEILVELP | not soluble |
| SLTAAENIQEQLYPAPIKTVEEGSPAARAGVRPGDVLLRVNGQPVTDVLAYRHQLERGVVTLEVARPHEAPRVMTGVAGTAQDHHRLMLPQPPSLDETLTFTVEWEDPGLDFEEVLFDGIKKCANKCDFCYVHQMPRGFRKSLYIMDDDYRLSFLYGSFVTLTNLTEGDINRILDENLSPLYVSVHTANQDLRQDMMKWWKLKVKDPQAVQIREMIERLESIDLYTQIVLVPERNDRENLDETVEYLSSRPNVISAAVVPIGLTAHRTNLPDVRTFTPEEAQDTLRRLNVWRRKFLAERGTRFIFPSDELYLLAGEPLPTEEEYEGFPMLENGVGMIRDFLTEALPPLPAALPEPRKVILGTGLLFADSLARAIEPLRQIEGLDIEVRAIENKTFGKVTTVAGLLTGRCFRHAVQPGEADLLIVPPTTLRYGTELMIDDTSLGELRRELKMDVRAGGATLGELARVVLEGAQSSGHQFGMSAHAVKDSGRDDVAPSASRAQGGAAPEESLEEDVAESGMHGRGQA | soluble |
| QVQLQQPGAELVKPGTSVKLSCKASGYNFTSYWINWVKLRPGQGLEWIGDIYPGSGITNYNEKFKSKATLTVDTSSSTAYMQLSSLASEDSALYYCAGQYGNLWFAYWGQGTLVTVS | soluble |
| SFQGADSQAGKSGSRSMKPPGGESSDLFGSPEEGISSSKPNRMASNIFGPTEEPKNIPKRTNPPGGKGSGIFDESTPVQTRQRLNPPGGKTSDIFGSPVTATAPLAHPNKPKDHVLLCEGEDSKSDLKAATDSTPRGEQSDKGSSKEVEHAKIPEPTPTVDSHEPRLGPRPRSHNKVLNPPGGKSSLSFY | soluble |
| MGSDKIHHHHHHMHLIDFMNEDIKKKLVKKTYKKKETILFAEQENEYVILMIDGIAEAFILNVKGNISTIHLYRSGSFFGEMEQFNDGKKPVEIVAFTDCNVYKLHRDDFLNWLRGDFEATKFLIREISSKLVVNAELIEELSSLSVKERLLRCISLHYYRSELNLLTKKQLASEVNAPIRSINRAINECVQEHLIAYENKRFSVINQREVLKNLPTT | not soluble |
| MYGEWGMGNILMMFHVYLVQGFRSEHGPVKDFSFERSSRSMLERSEQQIRAASSLEELLQIAHSEDWKLWRCRLKLKSLASMDSRSASHRSTRFAATFYDL | not soluble |
| MNTAQLTSKQTLSYVEQTALVLLGMGEDAAAKVLQHFTRDETQRVTRAMAKLNGIKSDSARGVIQNFFEDFREHSGIRGASKEYLSNTLRKALGNDLAKGLLNNLYGDEIRNNMQRLQWVEAETLARFIVNEHPQMQAIFLAYLPADSSSAVLKHLPQDYHDEIIFRIAQLQDIDHQVATDLHELVERCIEKVSASQSVPLSGVKQAADIINRFEGDRGSLMEMLKLHDEEVVNAIEEN | not soluble |
| GLLMEGDEPAGGKWNFDTENRKPAAPDLLRPRPLRFEPDAEVRAVLDLVEARFPRHFGRLRPFHWATDRAEALRALDHFIRESLPRFGDEQDAMLADDPFLSHALLSSSMNLGLLGPMEVCRRAETEWREGRAPLNAVEGFIRQILGWREYVRGIWTLSGPDYI | not soluble |
| MGSDKIHHHHHHMSTNLDQLTDWLKEHKITEVECMVSDLTGITRGKISPTNKFIAEKGMRLPESVLLQTVTGDYVEDDIYYELLDPADIDMICRPDQNAVYLVPWAVEPTAQVIHDTYDKQGNPIELSPRNVLKKVLKLYADQGWQPIVAPEMEFYLTKRSDDPDYPLQPPIGRSGRPETGRQSFSIEAANEFDPLFEDVYDWCELQNLDLDTLIHEDGTAQMEINFRHGDALSLADQILVFKRTMREAALKHDVAATFMAKPMTGEPGSAMHLHQSIIDIETGKNIFSNEDGTMSELFLNHVGGLQKFIPELLPLFAPNVNSFRRFLPDTSAPVNVEWGEENRTVGLRVPDAVPQNRRVENRLPGADANPYLAIAASLLCGFIGMVEGINPSAPVVGRGYERRNLRLPLTIEDALERMENSKTIEKYLGKKFIIGYVAVKRAEHENFKRVISSWEREFLLFAV | not soluble |
| MMKQGMANSISMTWQLLCDEHGFTREHYNQLKKFSPETLREIIAEIASCHPSTSVLLRNKWLTPPEDILEQITREYERRIQNCPPFRSEKEAESWLNELSFAVIAPLYRVAPEQTEQVESFVLQLIAEQERVWELILTNDGYSWHCALYDILFHLVLRNMEDQPEHQKQRITKIFYEPDARLVAEEIKFRIQSLYDDEQKRALSELVNDFTSKE | soluble |
| MGSDKIHHHHHHMINTALRLAAPEIEAFLQGRIIAAMPNKFITPGREFALCPSDASINLLPVEQYYRSSFLPIAQSAFAQLNIQGVLIQPQQMNLLIDEEQLKLPILAYETVLIKTWAKCELCQIINNTESFAALSQLTIWTTEALKEILRQKQNIFLAYLRVYELPKSIEVPIKSNSQFVALSQPLNVSEDKPVLKDRTFAQRKHQLEKLQPPLHPELEELQSAIASLSISQPAAKQLDDDIKVFLGWSSDKLTNPLDSDLPWIQNIAKVGNSSDGHTFEKLVRRGLLKLGFTGSGLNPDATGGAGGMDFYAEQPYPIVGECKATKTEKVTDGTPAQLLKIGMNHLGKFQYDNSIKLIVAAGELNFYALRTATENQMNIVSPETLQKLVELQAHYKNSINLLDLSGNKRE | not soluble |
| MIGLFNDCFPPIMDGVSLTTQNYAYWLHRKAGNVCVVTPKSPDARDAEEYPVYRYSSVPIPMRKPYRLGFPRIDWPFHERISRLSFELVHAHCPFSSGALAMQIAREQHVPIVATFHSKYRADFERAIPSRLLVNYLIRKVIRFYEAADEVWIPQAAVEETLREYGYKGRIEVVDNGNDFAGTPFLQSVRQEARRTLGIRSGEFMFLFVGQHIWEKNLGFLLDSLVRLSDIPFRMYFVGSGYASHELKQKVVELGLASKVSFVGSIVEREILKRYYVAADLFLFPSLYDNAPLVIREAAALGTPSVLIRDSTASEIISDSVNGFLSPNSTEAYSNRIREILCSTAIIKQVGEEASRTIARSWEDVAGEVYDRYNRLIKRNGNKLEHHHHHH | soluble |
| MAKIGENVPLLIDKAVDFMASSQAFREYLNKTPPRDYVPSEVPSESAPIYLQRLEYYRRLYRPKEEERG | not soluble |

Source: the DeepSol protein solubility set
